These results are taken from doi:10.1101/2024.04.28.591520.

The experiment concerns the target T1, Mycobacterium tuberculosis polyketide synthase 13 (Mycobacterium tuberculosis), I6X8D2.
T1 chain: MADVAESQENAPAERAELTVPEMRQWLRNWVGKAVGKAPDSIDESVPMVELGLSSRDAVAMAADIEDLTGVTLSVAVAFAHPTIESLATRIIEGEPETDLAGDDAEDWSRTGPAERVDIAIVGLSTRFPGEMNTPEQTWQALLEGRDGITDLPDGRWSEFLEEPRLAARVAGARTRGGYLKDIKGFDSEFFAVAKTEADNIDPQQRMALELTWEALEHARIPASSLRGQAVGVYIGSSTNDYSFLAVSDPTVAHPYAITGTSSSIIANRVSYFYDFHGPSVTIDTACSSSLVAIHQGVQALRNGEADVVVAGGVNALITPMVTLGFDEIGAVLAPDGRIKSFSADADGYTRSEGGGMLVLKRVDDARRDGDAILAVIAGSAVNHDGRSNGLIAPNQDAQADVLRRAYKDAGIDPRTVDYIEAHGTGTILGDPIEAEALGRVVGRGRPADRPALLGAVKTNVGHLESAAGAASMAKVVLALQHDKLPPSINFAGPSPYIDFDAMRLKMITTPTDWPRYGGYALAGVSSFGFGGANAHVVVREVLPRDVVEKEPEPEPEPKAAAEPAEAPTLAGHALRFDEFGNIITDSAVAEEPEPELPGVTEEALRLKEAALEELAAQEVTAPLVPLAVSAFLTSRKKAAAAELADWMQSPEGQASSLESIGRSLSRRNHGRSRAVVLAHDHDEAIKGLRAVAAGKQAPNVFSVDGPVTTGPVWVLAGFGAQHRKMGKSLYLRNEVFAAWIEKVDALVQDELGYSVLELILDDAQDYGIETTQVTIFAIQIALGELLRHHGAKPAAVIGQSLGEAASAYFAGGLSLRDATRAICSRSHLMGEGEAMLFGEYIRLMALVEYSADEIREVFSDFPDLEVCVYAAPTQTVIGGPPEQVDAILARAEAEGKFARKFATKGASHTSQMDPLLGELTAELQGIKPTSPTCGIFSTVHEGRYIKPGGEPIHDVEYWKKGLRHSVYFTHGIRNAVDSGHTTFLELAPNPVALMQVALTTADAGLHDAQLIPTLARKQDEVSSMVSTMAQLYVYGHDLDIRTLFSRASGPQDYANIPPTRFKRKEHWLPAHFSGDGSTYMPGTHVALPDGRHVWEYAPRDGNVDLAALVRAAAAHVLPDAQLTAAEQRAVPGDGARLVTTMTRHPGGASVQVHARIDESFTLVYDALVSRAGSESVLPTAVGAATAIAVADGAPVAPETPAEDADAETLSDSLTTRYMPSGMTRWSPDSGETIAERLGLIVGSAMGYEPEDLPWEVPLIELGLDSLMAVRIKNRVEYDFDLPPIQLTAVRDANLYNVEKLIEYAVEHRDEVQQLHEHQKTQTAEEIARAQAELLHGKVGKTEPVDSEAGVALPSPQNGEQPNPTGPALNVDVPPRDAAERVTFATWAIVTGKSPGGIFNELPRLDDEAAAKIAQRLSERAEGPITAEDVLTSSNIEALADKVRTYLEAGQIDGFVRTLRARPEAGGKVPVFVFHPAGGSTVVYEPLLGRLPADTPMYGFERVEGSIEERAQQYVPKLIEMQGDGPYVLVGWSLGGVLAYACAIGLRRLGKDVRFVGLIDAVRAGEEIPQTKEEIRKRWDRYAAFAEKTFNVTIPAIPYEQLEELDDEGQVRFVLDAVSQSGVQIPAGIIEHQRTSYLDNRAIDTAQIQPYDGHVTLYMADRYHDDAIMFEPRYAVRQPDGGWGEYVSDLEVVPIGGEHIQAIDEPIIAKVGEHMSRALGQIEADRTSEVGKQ
As to the kind of experiment: AUC. The following applies: remark: other sources report otherwise.

B1: Mycobacterium tuberculosis polyketide synthase 13, I6X8D2 1-1733 (enzyme)
chain: T1 chain
Turning to B1, the stoichiometry N came out at 2.

As usually defined, the stoichiometry N is the number of molecules, sites or subunits per partner or assembly.
